From US20160347859A1 (KATHOLIEKE UNIVERSITEIT LEUVEN, published 2016)

Legend:
mouse TAFI = biological target: T1, mouse TAFI (mouse, UniProt Q9JHH6 22-422); experiment: sandwich ELISA: plate coated with recombinant mouse PAI-1, diabody, mouse TAFI, HRP-conjugated MA-TCK32G12
T1 construct: also called Carboxypeptidase B2 (CPB2)
T1 sequence (looked up): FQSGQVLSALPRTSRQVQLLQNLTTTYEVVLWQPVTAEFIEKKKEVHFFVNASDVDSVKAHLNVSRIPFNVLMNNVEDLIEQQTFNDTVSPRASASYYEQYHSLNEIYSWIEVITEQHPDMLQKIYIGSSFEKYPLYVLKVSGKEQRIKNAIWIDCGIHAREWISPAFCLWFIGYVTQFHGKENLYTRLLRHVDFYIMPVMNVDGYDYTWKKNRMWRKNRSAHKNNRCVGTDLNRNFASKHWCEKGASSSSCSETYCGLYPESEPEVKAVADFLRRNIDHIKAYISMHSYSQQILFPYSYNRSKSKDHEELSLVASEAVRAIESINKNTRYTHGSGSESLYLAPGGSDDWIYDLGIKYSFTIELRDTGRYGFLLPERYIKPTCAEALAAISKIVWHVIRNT
Protocol: (§1) Db-TCK26D6x33H1F7 (0.8 mg/kg) was administered IV via tail vein injection in mice (n=6). Prior to the experiment, blood was withdrawn on 0.38% trisodium citrate (=pre-sample). Post injection, blood was withdrawn on 0.38% trisodium citrate at several time points: 5 min, 45 min, 3 hours, 6 hours and 24 hours. Diabody concentrations in corresponding plasma samples were determined by an ELISA based on the simultaneous binding of the diabody towards PAI-1 and TAFI. Wells of polystyrene microtiter plates were incubated with 200 μl recombinant mouse PAI-1 in PBS (pH 7.4; 4 μg/ml) for 72 hours at 4° C., emptied and treated for two hours with PBS supplemented with 1% (m/v) bovine serum albumin. After washing, serial two-fold dilutions (180 μl) of plasma samples were added to the wells and incubated overnight at 4° C. Then, the wells were washed and incubated with 170 μl mouse TAFI (0.1 μg/ml) for 2 hours at room temperature. Subsequently, plates were washed and 160 μl HRP-conjugated MA-TCK32G12 (directed against TAFI) was added to the wells followed by incubation for 2 hours at room temperature. All washing steps were performed with PBS containing Tween 80 (0.002%) and dilutions were made in PBS containing Tween 80 (0.002%) and bovine serum albumin (0.1% m/v). […] The absorbance was measured at 492 nm. […]

mouse PAI-1 = biological target: T2, mouse PAI-1 (mouse, UniProt P22777 23-402); experiment: as above
T2 construct: also called recombinant mouse PAI-1
T2 sequence (looked up): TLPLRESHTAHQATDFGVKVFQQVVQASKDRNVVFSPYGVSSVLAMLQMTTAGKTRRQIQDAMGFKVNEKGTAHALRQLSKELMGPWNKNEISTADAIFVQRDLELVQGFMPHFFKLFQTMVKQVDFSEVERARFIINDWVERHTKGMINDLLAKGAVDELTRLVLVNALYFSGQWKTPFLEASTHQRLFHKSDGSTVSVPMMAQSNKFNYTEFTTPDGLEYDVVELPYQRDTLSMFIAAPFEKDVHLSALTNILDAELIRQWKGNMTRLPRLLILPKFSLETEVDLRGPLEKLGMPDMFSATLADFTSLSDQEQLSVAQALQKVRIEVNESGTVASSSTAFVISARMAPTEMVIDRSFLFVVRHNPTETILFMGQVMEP
Protocol: as §1

binding result (mouse TAFI): binds
binding result (mouse PAI-1): binds
B1: Db-TCK26D6x33H1F7 (bispecific antibody)
chain 1: QVQLQQSGPELVKPGASVKISCKASGYTFTDNNMDWAKQSHGKSLEWIGSIYSNNGGTIYNQKFKGKATLNVDTSSSTAYMELRSLTSEDTAVYYCAREMSDGPYWFFDVWGTGTTVTVSGAKTTPKLGGDIQMTQSPSSLSASLGDRVTISCRASQDISNFLDWYQQKPDGTVKLLIYYTSRLHSGVPSRFSGSGSGTDYSLTISKLEQEDIATYFCQQGNTFPPTFGGGTKLEIKRADAAAAGSEQKLISEEDLNSHHHHHH
chain 2: QVQLQQSGAEVVKPGASVKLACTASGFNIKDTYIHWVKQGPEQGLEWIGRIDPANGNTKYDSKFQDKATITADTSSNTAYLHLSSLTSEDTAVYYCVRGDYDYVYFDYWGQGTTVTVSSAKTTPKLGGDIQMTQSPASLSVSVGETVTITCRASENIFRNLVWYQQKQGKSPQLLVYSATNLVDGVPSRFSGSGSGTQYSLKINSLQSEDFGSYYCQHFWGTPRTFGGGTKLEIKRADTAPTGSEQKLISEEDLNSHHHHHH
notes: also called diabody
